We go through one molecule from patent publication US20230137032A1 (GlaxoSmithKline, published 2023).

Experiment [1] deals with T1, cyno BCMA expressed on HEK293 cells (cyno, UniProt A0A2K5UD97 1-183).
T1 construct: whole, on cells; also called cyno BCMA HEK293
Kind of experiment: FMAT cell binding on HEK293 cells transfected with cyno BCMA, anti-human IgG FMAT Blue detection. The protocol: Cryopreserved transfected human, cyno BCMA and mock transfected HEK293 cells were recovered from LN2 storage. […] The assay plates were left for a minimum of 90 minutes before the result was read on the ABI8200 (FMAT) plate reader.

Experiment [2] concerns the target T2, recombinant human BCMA, commercial (US Biological, B0410) (human, UniProt Q02223 5-54, limits assumed).
T2 construct: also called commercial human BCMA; Human commercial BCMA
T2 chain (looked up): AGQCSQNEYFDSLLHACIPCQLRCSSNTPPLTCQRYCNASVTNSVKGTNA
Kind of experiment: Biacore T100, antibody captured on Protein A, 37C, experiment 1. The protocol:
Protein A was immobilised on a CMS chip (GE Healthcare, Cat No: BR-1005-30) by primary amine coupling and this surface was then used to capture the antibody molecules. Recombinant human BCMA (US Biological, B0410) was used as analyte at 256 nM, 64 nM, 16 nM, 4 nM and 1 nM. Regeneration of the capture surface was carried out using 50 mM NaOH. All binding curves were double referenced with a buffer injection (i.e. 0 nM) the data was fitted to the using the 1:1 model inherent to T100 evaluation software. The run was carried out at 25° C. and 37° C. for experiment 1 and only 37° C. for experiment 2 using HBS-EP as the running buffer.

Experiment [3] has as its target T3, recombinant human BCMA, in house material (human, UniProt Q02223 4-53, limits assumed).
T3 construct: also called Human in house BCMA; In house human BCMA
Briefly: ProteOn SPR run 2, antibody captured on Protein A, 25C; Run 2 (Table 9). The protocol: The initial screen of CA8 chimeric and humanised variants was carried out on the ProteOn XPR36 (Biorad). The method was as follows; Protein A was immobilised on a GLC chip (Biorad, Cat No: 176-5011) by primary amine coupling, CA8 variants were then captured on this surface and recombinant human BCMA (in house or commercial US Biological, B0410) materials (run 2 only)) passed over at 256, 64, 16, 4, 1 nM with a 0 nM injection (i.e. buffer alone) used to double reference the binding curves, the buffer used is the HBS-EP buffer. 50 mM NaOH was used to regenerate the capture surface. The data was fitted to the 1:1 model using the analysis software inherent to the ProteOn XPR36. […] Both runs were carried out at 25° C.

Experiment [4] concerns the target T4, human BCMA expressed on cells (human, UniProt Q02223 1-184).
T4 construct: whole, on cells; also called human BCMA HEK293; ARH77-hBCMA 10B5 BCMA expressing transfectant cells
T4 sequence (looked up): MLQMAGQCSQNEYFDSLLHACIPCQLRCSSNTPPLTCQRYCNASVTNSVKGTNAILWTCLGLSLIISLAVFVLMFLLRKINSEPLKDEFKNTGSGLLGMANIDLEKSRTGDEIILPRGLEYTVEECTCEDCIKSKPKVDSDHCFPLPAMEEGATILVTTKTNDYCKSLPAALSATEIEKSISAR
Kind of experiment: FACS on U266 cells, PE anti-human IgG, MFI. The protocol: (§1) Cells were then washed with FACS buffer (PBS+0.5% BSA+0.1% sodium azide) to remove unbound antibody. Cells were incubated with a secondary PE labelled anti-human IgG antibody for 15 minutes at RT and then washed with FACS buffer to remove unbound antibody. Cells were analysed by FACS and mean fluorescence intensity (MFI) values measured to determine binding.

Experiment [5] has as its target T4, human BCMA expressed on cells. Briefly: FACS on H929 cells, PE anti-human IgG, MFI. As for the experimental part:
as §1

In the next experiment the target is T5, cyno BCMA-Fc (cyno).
T5 construct: also called Cyno BCMA CD33 cyno BCMA ECD (4-52) TEV-Fc; recombinant cyno BCMA
Briefly: ELISA on coated cyno BCMA-Fc, anti-human IgG HRP, TMB. The protocol: Human BCMA-Fc and cyno BCMA-Fc were coated to ELISA plates and the plates were blocked using BSA to reduce non specific binding. CA8 chimeric antibodies were added in a concentration range from 5 ug/ml to 0.1 ug/ml to the human and cyno BCMA coated ELISA plates. […] HRP substrate (TMB) was added to develop the ELISA.

In experiment [6] the target is T6, recombinant human BCMA Fc 4-53 (human).
T6 construct: also called Human BCMA CD33-hBCMA ECD (4-53) TEV-Fc; recombinant BCMA
Briefly: competition ELISA: binding of recombinant human BAFF to coated recombinant human BCMA Fc 4-53, biotinylated anti-BAFF and streptavidin-HRP, % of control. The protocol: (§2) 96 well flat bottomed plates were coated overnight with 1 μg/mL solution of recombinant human BCMA Fc 4-53 in PBS. Following a wash step using 0.05% TWEEN20, plates were blocked with 2% Bovine Serum Albumin solution in PBS for 1 hour at room temperature. […] 40 μL of 2% BSA was added to the relevant control wells. […] Equivalent volume of 2% BSA was added to the relevant control wells. Plates were allowed to incubate for 2 hours at room temperature, after which they were washed as before. […] Following a wash step, 50 µL of a 1:4000 dilution of Streptavidin-HRP (Amersham RPN4401) was added to each well and incubated for 30 minutes at room temperature. The wash process was repeated again followed by the addition of […] of Tetramethylbenzidine substrate solution (T8665, Sigma) into each well. Plates were incubated for 20-25 minutes at room temperature, wrapped in foil. The reaction was stopped with the addition of […] of 1M H₂SO₄. Optical density was determined at 450 nm using Spectromax reader.

Experiment [7] has as its target T6, recombinant human BCMA Fc 4-53. Briefly: ELISA, neutralisation of ligand binding to plate-coated BCMA Fc 4-53; competitor BAFF; competitor BAFF. As for the experimental part:
as §2

B1: CA8 chimera antibody (human chimeric CA8) (antibody, V domains shown)
VH: EVQLQQSGAVLARPGASVKMSCKGSGYTFTNYWMHWVKQRPGQGLEWIGATYRGHSDTYYNQKFKGKAKLTAVTSTSTAYMELSSLTNEDSAVYYCTRGAIYNGYDVLDNWGQGTLVTVSS
VL: DIQLTQTTSSLSASLGDRVTISCSASQDISNYLNWYQQKPDGTVELVIYYTSNLHSGVPSRFSGSGSGTDYSLTIGYLEPEDVATYYCQQYRKLPWTFGGGSKLEIKR
notes: also called Chimera CA8; CA8 chimeric antibody
For B1, the half-maximal effective concentration (EC50 (read off the curve)) in experiment [1], in experiment [4] and in experiment [5] was about 0.3 µg/mL in each case. The figures for the Kd in experiment [2] and in experiment [3] were 51 pM and 412 pM, respectively. Further, the binding result with cyno BCMA-Fc is recorded as “binds”. Further, the “IC50 (read off the curve)” value in experiment [6] is about 0.7 µg/mL. Also, in experiment [7], the EC50 stood at 0.695 µg/mL.
